In IntAct's records for PubMed 23245941:

B1: Transcriptional coactivator YAP1 (Homo sapiens), P46937-3 (parent)
chain: MDPGQQPPPQPAPQGQGQPPSQPPQGQGPPSGPGQPAPAATQAAPQAPPAGHQIVHVRGDSETDLEALFNAVMNPKTANVPQTVPMRLRKLPDSFFKPPEPKSHSRQASTDAGTAGALTPQHVRAHSSPASLQLGAVSPGTLTPTGVVSGPAATPTAQHLRQSSFEIPDDVPLPAGWEMAKTSSGQRYFLNHIDQTTTWQDPRKAMLSQMNVTAPTSPPVQQNMMNSASAMNQRISQSAPVKQPPPLAPQSPQGGVMGGSNSNQQQQMRLQQLQMEKERLRLKQQELLRQVRPQELALRSQLPTLEQDGGTQNPVSSPGMSQELRTMTTNSSDPFLNSGTYHSRDESTDSGLSMSSYSVPRTPDDFLNSVDEMDTGDTINQSTLPSQQNRFPDYLEAIPGTNVDLGTLEGDGMNIEGEELMPSLQEALSSDILNDMESVLAATKLDKESFLTWL

Variants of: B1
Details: with ctnb1_human CTNNB1, P35222
ctnb1_human CTNNB1, P35222, sequence (P35222 whole entry): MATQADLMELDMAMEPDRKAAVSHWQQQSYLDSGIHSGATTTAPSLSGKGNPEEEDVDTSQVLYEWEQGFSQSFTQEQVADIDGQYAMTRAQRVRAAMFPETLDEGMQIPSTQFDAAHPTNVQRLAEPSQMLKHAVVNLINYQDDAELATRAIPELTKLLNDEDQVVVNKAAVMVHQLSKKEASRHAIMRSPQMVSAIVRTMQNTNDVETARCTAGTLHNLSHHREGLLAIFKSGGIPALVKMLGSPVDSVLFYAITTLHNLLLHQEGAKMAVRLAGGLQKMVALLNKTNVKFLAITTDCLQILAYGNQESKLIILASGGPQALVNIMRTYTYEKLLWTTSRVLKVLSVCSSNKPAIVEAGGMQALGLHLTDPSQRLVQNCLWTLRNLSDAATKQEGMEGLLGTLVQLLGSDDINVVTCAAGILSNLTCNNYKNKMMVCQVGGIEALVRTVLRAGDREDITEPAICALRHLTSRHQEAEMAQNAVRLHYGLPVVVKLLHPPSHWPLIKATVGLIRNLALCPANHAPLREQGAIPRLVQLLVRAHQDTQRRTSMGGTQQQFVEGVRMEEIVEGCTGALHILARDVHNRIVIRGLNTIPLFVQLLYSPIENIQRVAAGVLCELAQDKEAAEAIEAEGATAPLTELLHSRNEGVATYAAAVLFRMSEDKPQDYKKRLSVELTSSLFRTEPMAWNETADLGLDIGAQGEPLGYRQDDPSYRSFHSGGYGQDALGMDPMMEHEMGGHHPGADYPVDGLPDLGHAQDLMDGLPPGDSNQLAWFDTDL

effect of a mutation on the interaction	Variant
increasing interaction strength	Y357F
